In patent US20220348659A1 (TWIST BIOSCIENCE, published 2022):
Substitutions are numbered along the chain they refer to. Each block holds one molecule with its values, some of them ahead of it.

How the values were obtained:
[1] = molecular target: CD3 on human CD8+ T cells; assay: flow cytometry titration on CD8+ T cells, MFI against [IgG] nM
[2] = molecular target: CD3 on human CD8+ T cells; assay: flow cytometry titration, RL1-H MFI against [IgG] nM; cells not named on this panel, the points are those of the CD8+ T-Cell curves of FIGS. 12E-12G
[3] = molecular target: CD3 on Jurkat cells; assay: flow cytometry titration on Jurkat cells, MFI against [IgG] nM
[4] = molecular target: CD3 on human CD8+ T cells; assay: flow cytometry titration, MFI against [IgG] nM; cells not named on this panel, the value and the curve are those of the CD8+ T-Cell curve of FIG. 12F
[5] = molecular target: T1, human CD3 epsilon (human, UniProt P07766 23-126, limits assumed); assay: sensorgrams with fits, Response (RLU) against Time (s); instrument not named; species not printed on the panel: human by the order of the panels (11I-11K human, 11L-11N cyno, after the text's 67 nM and 107 nM)
T1 construct: Used as a soluble protein target in panning; the construct is not described; also called hCD3; hCD3 epsilon

[6] = molecular target: cyno CD3 epsilon (cyno (cynomolgus monkey)) (UniProt Q95LI5); assay: sensorgrams with fits, Response (RLU) against Time (s); instrument not named; species not printed on the panel: cyno by the order of the panels (11I-11K human, 11L-11N cyno, after the text's 67 nM and 107 nM)
[7] = molecular target: T2, cyno CD3 epsilon (cyno (cynomolgus monkey), UniProt Q95LI5 22-117, limits assumed); assay: flow cytometry on Expi293 cells overexpressing cynoCD3e, antibody at 100 nM; bar = MFI ratio (OE/parent)
T2 construct: Used as a soluble protein target in panning; the construct is not described; also called cCD3; cCD3 epsilon
T2 sequence (looked up): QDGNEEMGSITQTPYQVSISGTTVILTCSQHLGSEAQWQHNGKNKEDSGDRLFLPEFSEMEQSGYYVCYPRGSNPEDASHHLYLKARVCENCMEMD

[8] = molecular target: T1, human CD3 epsilon; assay: flow cytometry on Expi293 cells overexpressing hCD3e, antibody at 100 nM; bar = MFI ratio (OE/parent), 1 = parent cells
[9] = molecular target: T2, cyno CD3 epsilon; assay: sensorgrams with fits, Response (RLU) against Time (s); instrument not named; panel shaded grey; species not printed on the panel: cyno by the order of the panels (11I-11K human, 11L-11N cyno, after the text's 67 nM and 107 nM)
[10] = molecular target: T1, human CD3 epsilon; assay: method not stated; human CD3 epsilon

CD3 on human CD8+ T cells, sequence (chain, as listed by the source limits assumed): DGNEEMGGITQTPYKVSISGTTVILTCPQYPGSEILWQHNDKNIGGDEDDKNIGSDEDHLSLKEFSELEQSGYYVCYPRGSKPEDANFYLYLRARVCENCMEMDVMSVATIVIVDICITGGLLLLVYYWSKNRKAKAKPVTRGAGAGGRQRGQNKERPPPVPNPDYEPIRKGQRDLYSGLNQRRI
T1 sequence (P07766 23-126 limits assumed): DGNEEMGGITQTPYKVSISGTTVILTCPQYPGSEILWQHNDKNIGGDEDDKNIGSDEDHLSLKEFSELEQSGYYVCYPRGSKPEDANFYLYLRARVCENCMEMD

Molecule: R&D MAB100 (antibody)
EC50 [1]: 3.05 nM
EC50 (read off the curve) [2]: 3 nM
EC50 [3]: 0.537 nM
EC50 [4]: 3.05 nM

Molecule: muSP34 (antibody)
Kd [5]: < 0.0019 nM
Kd [6]: 38 nM

B4: CD3-56-11 (antibody, V domains shown)
VH: EVQLLESGGGLVQPGGSLRLSCAASGFRFSTYAMNWVRQAPGKGLEWVSGISGSGGSKYHADSVKGRFTISRDNSKNTLYLQMNSLRAEDTAVYYCARDSLTTRGYYYYMDVWGQGTLVTVSS
VL: DIQMTQSQSSLSASVGDRVTITCRASQSIRTSLNWYQQKPGKAPKLLIYAASRLQSGVPSRFSGSGSGTDFTLTISSLQPEDFATYYCQQSYSTLYSFGGGTKVEIK
Kd [5]: 130 nM
Kd [9]: 162000 nM

B5: CD3-56-05 (antibody, V domains shown)
VH: EVQLLESGGGLVQPGGSLRLSCAASGFTFSSYAMNWVRQAPGKGLEWVSAVSGSGGRTYYADSVKGRFTISRDNSKNTLYLQMNSLRAEDTAVYYCARERATTLDYWGQGTLVTVSS
VL: B4 VL with Q8P, S28T, R30Y, T31S, S32H, A50V, Y92F, L95S, Y96W, S97T
notes: the text speaks of CD3 epsilon IgGs from a Fab library on the DP47 framework; also called CD3-56-5; CD-3-56-5
Kd [10]: 67 nM

B6: CD3-252-22 (VHH)
VHH: EVQLVESGGGLVQPGGSLRLSCAASGNIFTRHIMGWFRQAPGKEREFVAAITNGGSTKYADSVKGRFTISADNSKNTAYLQMNSLKPEDTAVYYCARQDYYDSSGHIRYWGQGTLVTVSS
notes: also called CD3-252-022
binding result [8]: binds

Now from value to molecule:

binding result [7]: no binding (tested: 100 nM)
binding result [8]: binds
B1: CD3-252-29 (VHH)
VHH: EVQLVESGGGLVQPGGSLRLSCAASGTTFRINVMGWFRQAPGKEREFVAAITSSGSSTLYADSVKGRFTISADNSKNTAYLQMNSLKPEDTAVYYCARGGGYHRLWGQGTLVTVSS
notes: also called CD3-252-029

binding result [7]: no binding (tested: 100 nM)
binding result [8]: binds
B2: CD3-252-24 (VHH)
VHH: EVQLVESGGGLVQPGGSLRLSCAASGITFKRYVMGWFRQAPGKEREFVAAITNGGSTKYADSVKGRFTISADNSKNTAYLQMNSLKPEDTAVYYCARDLSAGPGKAVYWGQGTLVTVSS
notes: also called CD3-252-024

binding result [7]: no binding (tested: 100 nM)
binding result [8]: binds
B3: CD3-252-5 (VHH)
VHH: EVQLVESGGGLVQPGGSLRLSCAASGRISNINIMGWFRQAPGKEREFVAAISWNSGTTRYADSVKGRFTISADNSKNTAYLQMNSLKPEDTAVYYCASQGPGLYGSGSYLRYWGQGTLVTVSS
notes: also called CD3-252-005

binding result [7]: no binding (tested: 100 nM)
binding result [8]: binds
B7: CD3-252-10 (VHH)
VHH: EVQLVESGGGLVQPGGSLRLSCAASGRSLYDRAYVMGWFRQAPGKEREFVAAINRSGSALYADSVKGRFTISADNSKNTAYLQMNSLKPEDTAVYYCAAKAVTSRDHEWGQGTLVTVSS
notes: also called CD3-252-010
